43 substances from patent US11306156 can be followed below.

By Kd is commonly meant the concentration at which binding is half-saturated. Higher therefore signals a looser complex.

Assay [1] deals with tissue factor (TF) antigen (UniProt P13726). Put plainly: SPR (ProteOn), against wild-type D3H44 Fab.
For assay [2] the target is unchanged. The assay is described as follows: SPR (ProteOn), Fab captured by anti-penta-His, TF as analyte, 1:1 fit.
Assay [3] shares this target. Put plainly: SPR; log ratio against wild-type D3H44 Fab.
Assay [4] shares this target. The assay is described as follows: SPR (ProteOn XPR36): Fab captured via His tag on anti-penta-His, TF as analyte, 1:1 fit.
Assay [5] has the same target. Put plainly: SPR KD against wild-type D3H44 Fab (reference KD 0.157 nM).
Assay [6] shares this target. Put plainly: SPR (ProteOn), Fab captured on anti-penta-His, TF analyte, 1:1 fit.

Chain of tissue factor (TF) antigen (P13726 33-251 limits assumed): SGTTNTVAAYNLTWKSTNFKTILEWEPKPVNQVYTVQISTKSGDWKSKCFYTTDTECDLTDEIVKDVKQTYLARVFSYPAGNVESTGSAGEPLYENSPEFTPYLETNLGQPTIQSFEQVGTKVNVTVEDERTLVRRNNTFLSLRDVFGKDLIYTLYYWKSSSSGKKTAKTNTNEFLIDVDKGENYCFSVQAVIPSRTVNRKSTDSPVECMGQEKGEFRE

Regarding “D3H44 Fab heterodimer, H1L1 of LCCA set 9444 (H: L124R_Q179K; L: V133G_S176D_T180E)”, the Change in KD with respect to wild type (-(log(KD design) - log(KD wt))) in assay [1] is -0.26. Further, in assay [2], the Kd came to 0.28 nM.
As to “D3H44 Fab heterodimer, H1L1 of LCCA set 9575 (H: L143D_K145T_Q179E; L: T178R)”, in assay [1], the Change in KD with respect to wild type (-(log(KD design) - log(KD wt))) was -0.25. In assay [2], the equilibrium dissociation constant (Kd) came to 0.28 nM.
The matching figures for “D3H44 Fab heterodimer, H1L1 of LCCA set 9588 (H: L143E_K145T; L: Q124R)”: -0.25 and 0.28 nM.
For “D3H44 Fab heterodimer, H1L1 of LCCA set 9620 (H: L143E_K145T_Q179D; L: Q124R_Q160K_T178R)”, the Change in KD with respect to wild type (-(log(KD design) - log(KD wt))) in assay [1] was determined as 0.39. Further, the Kd in assay [2] was 0.06 nM.
In the same order, the values of “D3H44 Fab heterodimer, H1L1 of LCCA set 9632 (H: L143E_K145T_Q179D; L: Q124R_T178R)” are 0.04 and 0.14 nM.
The matching figures for “D3H44 Fab heterodimer, H1L1 of LCCA set 9638 (H: L143E_K145T_Q179D; L: T178R)”: 0.17 and 0.11 nM.
Regarding “D3H44 Fab heterodimer, H1L1 of LCCA set 9684 (H: L143E_K145T_Q179E; L: T178R)”, the Change in KD with respect to wild type (-(log(KD design) - log(KD wt))) in assay [1] is -0.28. In addition, the dissociation constant Kd in assay [2] was determined as 0.3 nM.
The matching figures for “D3H44 Fab heterodimer, H1L1 of LCCA set 9688 (H: L143E_K145T_Q179E_S188L; L: Q124R_T178R)”: -0.34 and 0.34 nM.
In the same order, the values of “D3H44 Fab heterodimer, H1L1 of LCCA set 9741 (H: L143R; L: Q124E_V133E_Q160F)” are 0.34 and 0.07 nM.
With “D3H44 Fab heterodimer, H1L1 of LCCA set 9803 (H: Q179R; L: Q124E_S131T_T178F_T180E)”, in assay [1], the Change in KD with respect to wild type (-(log(KD design) - log(KD wt))) amounted to 0.14. Moreover, the Kd in assay [2] amounted to 0.11 nM.
The matching figures for “D3H44 Fab heterodimer, H1L1 of LCCA set 9843 (H: S186K; L: Q124E_S131T_T178F_T180E)”: -0.03 and 0.17 nM.
On to “D3H44 Fab heterodimer, H1L1 of LCCA set 9863 (H: S186K; L: Q124E_T180E)”, for which, in assay [1], the Change in KD with respect to wild type (-(log(KD design) - log(KD wt))) was 0.46. Besides, the Kd in assay [2] came out at 0.06 nM.
The matching figures for “D3H44 Fab heterodimer, H1L1 of LCCA set 9867 (H: S186R; L: Q124E_Q160E_T178E)”: 0.06 and 0.14 nM.
The matching figures for “D3H44 Fab heterodimer, H1L1 of LCCA set 9885 (H: S186R; L: Q124E_S176L_T180E)”: -0.06 and 0.18 nM.
The matching figures for “D3H44 Fab heterodimer, H1L1 of LCCA set 9887 (H: S186R; L: Q124E_T178E)”: 0.06 and 0.14 nM.
In assay [1], “D3H44 Fab heterodimer, H1L1 of LCCA set 9901 (H: S186R; L: Q124E_T180E)” had a Change in KD with respect to wild type (-(log(KD design) - log(KD wt))) of 0.36. Further, the Kd in assay [2] came to 0.07 nM.
The matching figures for “D3H44 Fab heterodimer, H1L1 of LCCA set 9983 (H: Q179K; L: S131E)”: 0.05 and 0.14 nM.
The matching figures for “D3H44 Fab heterodimer, H1L1 of LCCA set 9987 (H: L143E_K145T; L: Q124R_T178R)”: 0.15 and 0.11 nM.
The matching figures for “D3H44 Fab heterodimer, H1L1 of LCCA sets 9708, 9712 and 9716 (H: L143E_K145T_S188L; L: Q124R_Q160K_T178R)”: -0.19 and 0.24 nM.
On to “D3H44 Fab heterodimer, H1L1 of LCCA sets 9763 and 9773 (H: Q179K; L: Q124E_Q160E_T180E)”, for which, in assay [1], the Change in KD with respect to wild type (-(log(KD design) - log(KD wt))) was -0.31. The substance further came in with a dissociation constant (Kd) in assay [2] of 0.32 nM.
In the same order, the values of “D3H44 Fab heterodimer, H1L1 of LCCA sets 9831, 9833 and 9841 (H: S186K; L: Q124E_Q160E_T180E)” are 0.09 and 0.13 nM.
The matching figures for “D3H44 Fab heterodimer, H1L1 of LCCA sets 9869, 9871, 9874, 9876 and 9879 (H: S186R; L: Q124E_Q160E_T180E)”: 0.51 and 0.05 nM.
The substance “D3H44 Fab heterodimer, H1L1 of LCCA sets 9881 and 9882 (H: S186R; L: Q124E_S131T_T178F_T180E)” showed a Change in KD with respect to wild type (-(log(KD design) - log(KD wt))) in assay [1] of 0.15. Besides, in assay [2], the Kd was determined as 0.11 nM.
In the case of “D3H44 Fab heterodimer, H L143E_K145T / L Q124R (H1L1 of LCCA set 9587)”, the Change in KD with respect to wild type (-(log(KD design) - log(KD wt))) in assay [3] was -0.25. This substance registered a Kd in assay [4] of 0.28 nM.
The matching figures for “D3H44 Fab heterodimer, H L143E_K145T_Q179D / L Q124R_T178K (H1L1 of LCCA set 9626)”: 0.12 and 0.12 nM.
With “D3H44 Fab heterodimer, H L143E_K145T_Q179E / L Q124R_Q160K_T178R (H1L1 of LCCA set 9654)”, the Change in KD with respect to wild type (-(log(KD design) - log(KD wt))) in assay [3] came to 0.02. The same substance registered a Kd in assay [4] of 0.15 nM.
The matching figures for “D3H44 Fab heterodimer, H L143E_K145T_Q179E_S188L / L Q124R_T178R (H1L1 of LCCA sets 9696 and 9692)”: -0.34 and 0.34 nM.
In the same order, the values of “D3H44 Fab heterodimer, H L143R / L Q124E_V133E (H1L1 of LCCA sets 9735 and 9737)” are -0.09 and 0.2 nM.
In the same order, the values of “D3H44 Fab heterodimer, H Q179K / L Q124E_Q160E_T180E (H1L1 of LCCA sets 9761, 9769 and 9767)” are -0.31 and 0.32 nM.
For the substance “D3H44 Fab heterodimer, H Q179K / L Q124E_S176L_T180E (H1L1 of LCCA set 9782)”, the Change in KD with respect to wild type (-(log(KD design) - log(KD wt))) in assay [3] stood at 0.28. In addition, the Kd in assay [4] was 0.08 nM.
Take “D3H44 Fab heterodimer, H Q179K / L Q124E_T180E (H1L1 of LCCA sets 9797, 9794, 9789 and 9787)”: the Change in KD with respect to wild type (-(log(KD design) - log(KD wt))) in assay [3] came to 0.16. The Kd in assay [4] stood at 0.11 nM.
As to “D3H44 Fab heterodimer, H Q179R / L Q124E_S176L_T180E (H1L1 of LCCA set 9808)”, the Change in KD with respect to wild type (-(log(KD design) - log(KD wt))) in assay [3] is -0.02. Further, the dissociation constant (Kd) in assay [4] worked out at 0.17 nM.
The matching figures for “D3H44 Fab heterodimer, H S186K / L Q124E_Q160E_T178E (H1L1 of LCCA set 9829)”: 0.41 and 0.06 nM.
In the same order, the values of “D3H44 Fab heterodimer, H S186K / L Q124E_Q160E_T180E (H1L1 of LCCA sets 9836 and 9841)” are 0.09 and 0.13 nM.
On to “D3H44 Fab heterodimer, H S186K / L Q124E_S131T_T178Y_T180E (H1L1 of LCCA set 9846)”, for which the Change in KD with respect to wild type (-(log(KD design) - log(KD wt))) in assay [3] came to 0.09. Also, the Kd in assay [4] was determined as 0.13 nM.
The matching figures for “D3H44 Fab heterodimer, H S186K / L Q124E_S176L_T180E (H1L1 of LCCA set 9848)”: 0.03 and 0.15 nM.
The matching figures for “D3H44 Fab heterodimer, H S186K / L Q124E_T180E (H1L1 of LCCA sets 9855, 9860 and 9863)”: 0.46 and 0.06 nM.
Consider “D3H44 Fab heterodimer, H S186R / L Q124E_Q160E_T180E (H1L1 of LCCA sets 9876 and 9874)”, for which the Change in KD with respect to wild type (-(log(KD design) - log(KD wt))) in assay [3] stood at 0.51. In addition, the Kd in assay [4] turned out to be 0.05 nM.
In turn, “D3H44 Fab heterodimer, H: S186K, L: Q124E_T180E (H1L1 Fab of LCCA sets 9853 and 9858)” gave a Change in KD with respect to wild type (-(log(KD design) - log(KD wt))) in assay [5] of 0.46. Further, in assay [6], the Kd is 0.06 nM.
The substance “D3H44 Fab heterodimer, H: S186R, L: Q124E_Q160E_T178E (H1L1 Fab of LCCA set 9868)” returned a Change in KD with respect to wild type (-(log(KD design) - log(KD wt))) in assay [5] of 0.06. Moreover, the Kd in assay [6] is 0.14 nM.
The matching figures for “D3H44 Fab heterodimer, H: S186R, L: Q124E_T178E (H1L1 Fab of LCCA set 9888)”: 0.06 and 0.14 nM.
In the same order, the values of “D3H44 Fab heterodimer, H: S186R, L: Q124E_T178E_T180E (H1L1 Fab of LCCA set 9890)” are 0.49 and 0.05 nM.
In assay [5], “D3H44 Fab heterodimer, H: S186R, L: Q124E_T180E (H1L1 Fab of LCCA sets 9891, 9893, 9896 and 9898)” registered a Change in KD with respect to wild type (-(log(KD design) - log(KD wt))) of 0.36. The substance also registered a Kd in assay [6] of 0.07 nM.
